Values quoted from earlier work, collected in article PMC9256959.

Biological target: AMH mature ligand mature domain (Homo sapiens) (UniProt P03971)

AMH prodomain prodomain (from UniProt P03971)
Kd: 0.4 pM
